# Laboratory results as given in IntAct's records for PubMed 15165234.
# B1: Nitrogen regulatory protein P-II (Synechococcus elongatus (strain PCC 7942)), P0A3F4 (parent)
# chain: MKKIEAIIRPFKLDEVKIALVNAGIVGMTVSEVRGFGRQKGQTERYRGSEYTVEFLQKLKLEIVVEDAQVDTVIDKIVAAARTGEIGDGKIFVSPVDQTIRIRTGEKNADAI
# partner: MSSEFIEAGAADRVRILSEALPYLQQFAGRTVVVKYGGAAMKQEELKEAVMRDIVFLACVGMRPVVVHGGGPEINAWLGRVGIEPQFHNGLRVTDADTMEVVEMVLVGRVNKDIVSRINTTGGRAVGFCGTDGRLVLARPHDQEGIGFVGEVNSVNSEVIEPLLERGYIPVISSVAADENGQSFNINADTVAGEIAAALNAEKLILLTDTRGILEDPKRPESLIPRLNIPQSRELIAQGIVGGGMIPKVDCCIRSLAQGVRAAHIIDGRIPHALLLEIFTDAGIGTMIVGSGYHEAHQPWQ
# Variants of: B1
# Settings: with argb_syne7 argB
row,Variant,effect of a mutation on the interaction
1,S49A,decreasing interaction
2,S49E,decreasing interaction
